Test results published in WO2013139956A1 (dated 2013).

Columns and labels:
Experiment in all cases: ELISA, biotin-peptide on neutravidin plate, antibody 1 ug/ml
[1] = target: T1, peptide … (SEQ ID NO:51), N-terminally biotinylated (human)
T1 sequence (peptide, N-terminally biotinylated): EISQEVRGDVFPSY

[2] = target: T2, peptide … (SEQ ID NO:74), N-terminally biotinylated (human)
T2 sequence (peptide, N-terminally biotinylated): EISQEVAGDVFPSY

[3] = target: T3, peptide … (SEQ ID NO:75), N-terminally biotinylated (human)
T3 sequence (peptide, N-terminally biotinylated): EISQEVRADVFPSY

[4] = target: peptide … (SEQ ID NO:76), N-terminally biotinylated (human)
[5] = target: T4, peptide … (SEQ ID NO:77), N-terminally biotinylated (human)
T4 sequence (peptide, N-terminally biotinylated): EISQEVAADVFPSY

[6] = target: peptide … (SEQ ID NO:78), N-terminally biotinylated (human)
[7] = target: peptide … (SEQ ID NO:79), N-terminally biotinylated (human)
[8] = target: peptide … (SEQ ID NO:80), N-terminally biotinylated (human)
[9] = target: peptide … (SEQ ID NO:81), N-terminally biotinylated (human)
[10] = target: peptide … (SEQ ID NO:82), N-terminally biotinylated (human)
[11] = target: peptide … (SEQ ID NO:83), N-terminally biotinylated (human)
[12] = target: peptide … (SEQ ID NO:84), N-terminally biotinylated (human)
[13] = target: peptide … (SEQ ID NO:85), N-terminally biotinylated (human)
[14] = target: peptide … (SEQ ID NO:86), N-terminally biotinylated (human)

rabbit polyclonal antibody preparation raised against amino acids 56-190 of murine MFG-E8 (Santa Cruz sc-33546)
absorbance 450 nm minus 540 nm [1]: 0.28 absorbance | absorbance 450 nm minus 540 nm [2]: 0.24 absorbance | absorbance 450 nm minus 540 nm [3]: 0.22 absorbance | absorbance 450 nm minus 540 nm [4]: 0.24 absorbance | absorbance 450 nm minus 540 nm [5]: 0.24 absorbance | absorbance 450 nm minus 540 nm [6]: 0.28 absorbance | absorbance 450 nm minus 540 nm [7]: 0.28 absorbance | absorbance 450 nm minus 540 nm [8]: 0.31 absorbance | absorbance 450 nm minus 540 nm [9]: 0.27 absorbance | absorbance 450 nm minus 540 nm [10]: 0.24 absorbance | absorbance 450 nm minus 540 nm [11]: 0.24 absorbance | absorbance 450 nm minus 540 nm [12]: 0.29 absorbance | absorbance 450 nm minus 540 nm [13]: 0.41 absorbance | absorbance 450 nm minus 540 nm [14]: 0.34 absorbance
